Experimental data reported in patent US8501695B2, “Tissue kallikrein for the treatment of diseases associated with amyloid protein” (DiaMedica, Inc., priority 2007, dated 2013).

Tests used:
[1] = tested on: rat mixed cortical cultures (RMCC); assay: Aβ1-42 toxicity in rat mixed cortical cultures, neuronal survival (NeuN cell count); format: cell-based
Method: (§1) Whether pre-treatment with tissue kallikrein protects rat mixed cortical cultures against exposure to human amyloid beta peptide (Aβ1-42) was investigated. Cell death was analyzed by LDH-release, an indication of necrosis, and cell viability was also analyzed by neuronal cell count. First (Study Arm A), tissue kallikrein was added to the cells only prior to the Aβ1-42 insult (at −24 h and at −30 min). Whereas in the second part (Study Arm B), tissue kallikrein was added to the cells prior to (−30 min) and also at +24 h after the Aβ1-42 insult. At the +24 h time point, cell culture media were not changed (tissue kallikrein or corresponding amount of vehicle was added to the wells), whereas at −24 h and −30 min time point cell culture media were changed.
(§2) […] Cell Culture. Mixed cortical cultures were prepared from E18 Wistar rat embryos (National Animal Center, Kuopio, Finland). The cortices were dissected out, and the tissue cut to small pieces. The cells were separated by 15-min incubation with DNase and papain. The cells were collected by centrifugation (1500 rpm, 5 min). The tissue was triturated with a pipette and the cells were plated on poly-L-lysine-coated 48-well plates, 300,000 cells/cm^2, in MEM (2 g/L glucose) supplemented with 2 mM glutamine, 0.1 μg/ml gentamicin, 10% heat-inactivated fetal bovine serum (FBS-HI) and 10% heat-inactivated horse serum (HS-HI). After 3-4 h, the media were changed to MEM (2 g/L glucose) supplemented with 2 mM glutamine, 0.1 μg/ml gentamicin, 5% HS-HI. After three days in vitro, media containing MEM (2 g/L glucose) supplemented with glutamine, gentamicin, and 5% of both sera were changed to the cells. On day 6 in vitro, the unwanted cell division was inhibited by adding cytosine arabinoside (10 μM final concentration) for 24 h. The cultures were refed with MEM (2 g/L glucose) supplemented with glutamine, gentamicin, and 5% HS-HI before experiments.
(§3) Aβ1-42 Exposure. Tissue kallikrein (SEQ ID NO:1) was dissolved and further diluted in MEM supplemented with glucose, glutamine, gentamicin, and 5% HS-HI. As a control for total neuronal death, 300 μM N-methyl-D-aspartic acid (NMDA) for 48 h was used, and 10 μM Aβ1-42 for 48 h was used to induce approximately 30-50% cell death. Wells treated with media only served as 0-control. Tissue kallikrein or vehicle was pipetted to the cells −24 h and −30 min before adding 10 μM Aβ1-42 (final concentration). Tissue kallikrein or vehicle was again pipetted to the cells at +24 h after exposure.
Immunocytochemistry for Neuronal Survival. For neuronal counts, the cultures were fixed with 4% paraformaldehyde in 0.01 M PBS for 30 min and washed twice with PBS. The fixed cells were first permeabilized, and non-specific binding blocked by 30 min incubation with blocking buffer containing 1% bovine serum albumin and 0.3% Triton® X-100 in PBS. Anti-neuronal nuclei antibody (anti-NeuN, dilution 1:500, Chemicon, Temecula, Calif.) was used as the primary antibody. The cells were incubated with the primary antibody for 48 h, followed by incubation with a biotinylated secondary antibody (1:200, Vector Labs) for 2 h, and the avidin-biotin-peroxidase complex (ABC-reagent, 1:200, Vector ABC Elite Kit, Vector Labs) for 2 h. The positive cells were visualized using Ni-enhanced DAB as a substrate (DAB Substrate kit, Vector Labs). The NeuN immunopositive neurons were counted using a light microscope. Altogether, 2 fields of each well were counted. The results are shown as percent viable neurons.
Data Analysis. The number of wells per compound concentration used was 6 (n=6). […] Statistical analysis was performed using StatsDirect statistical software. The values were analyzed by one-way ANOVA followed by Dunnet's test (comparison to the vehicle-treated group). Results are presented as mean±standard deviation (SD) and differences are considered to be statistically significant at the P<0.05 level.

[2] = target: T1, Amyloid beta1-42 (hAPβ42 peptide) (Homo sapiens, UniProt P05067); assay: Direct cleavage of amyloid beta, β-Amyloid1-42 ELISA; format: biochemical
T1 construct: Amyloid beta1-42 standard (from β-Amyloid1-42 ELISA, Human kit, Sigma BE0200); purchased Sigma BE0200
Method: Amyloid beta1-42 standard (from β-Amyloid1-42 ELISA, Human kit, Sigma BE0200) was reconstituted into 1.0 μg/mL as per kit instructions. A stock solution of tissue kallikrein (SEQ ID: 1) and approximately 0.5 molar equivalents of Soybean Trypsin Inhibitor (Sigma, T6522) was prepared in PBS and serially diluted in triplicate with a fixed concentration of hAPβ42 peptide at 500 pg/mL. Solutions were incubated for 3 and 18 hours respectively after which time additional protease inhibitors were added (1/100 dilution of protease inhibitor cocktail solution, Sigma P8340). As per kit instructions, 50 μL of the above samples were added and the ELISA plate incubated overnight at 4° C. The remaining steps of the ELISA plate development were followed as per kit instructions and then read using a multiwell ELISA plate reader at 450 nm. Percent cleavage was determined by: 100−[(Ave KLK1−Ave Blank)/(Ave Control−Ave Blank)×100]=% Cleavage Results

[3] = tested on: rat mixed cortical cultures (RMCC); assay: Aβ1-42 toxicity in rat mixed cortical cultures, LDH measurement; format: cell-based
Method: as §1, §2, §3
LDH Measurement. After 48 h, the culture media of all wells were collected, and possible cell debris was removed by centrifugation (13,000 rpm for 3 min). A 100 μl aliquot was pipetted into a microtiter plate as duplicates, and equal amount of LDH reagent was pipetted to the wells. The absorbance at 340 nm was measured immediately using a 3 min kinetic measurement protocol in Multiskan ELISA reader (Labsystems, Finland). The change in absorbance/min was determined, which was directly proportional to the released LDH. The remaining supernatant (50 μl) was snap-frozen in dry ice for storage.
Data Analysis. The number of wells per compound concentration used was 6 (n=6). Five concentrations of Tissue kallikrein were studied (0.001, 0.01, 0.1, 1, 10 μg/ml) in both study arms. Statistical analysis was performed using StatsDirect statistical software. The values were analyzed by one-way ANOVA followed by Dunnet's test (comparison to the vehicle-treated group). Results are presented as mean±standard deviation (SD) and differences are considered to be statistically significant at the P<0.05 level.

T1 sequence (P05067 672-713 limits assumed): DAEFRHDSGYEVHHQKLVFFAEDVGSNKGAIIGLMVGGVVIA

B1: tissue kallikrein: serine protease that cleaves kininogen into kallidin; polypeptide SEQ ID NO:1 (Sus scrofa kallikrein 1), KLK1 from Sigma (protein, listed as Sus scrofa)
chain: MWSLVMRLALSLAGTGAAPPIQSRIIGGRECEKDSHPWQVAIYHYSSFQCGGVLVDPKWVLTAAHCKNDNYQVWLGRHNLFENEVTAQFFGVTADFPHPGFNLSLLKNHTKADGKDYSHDLMLLRLQSPAKITDAVKVLELPTQEPELGSTCQASGWGSIEPGPDDFEFPDEIQCVELTLLQNTFCADAHPDKVTESMLCAGYLPGGKDTCMGDSGGPLICNGMWQGITSWGHTPCGSANKPSIYTKLIFYLDWINDTITENP
modifications: 125I label in one form
[1]; Study Arm A, 1.0 μg/ml
  cell counts (survival) after Aβ1-42 insult: provided protection
[1]; Study Arm A, 10 μg/ml
  cell counts (survival) after Aβ1-42 insult: protection provided by 10 μg/ml was statistically significant
[1]; Study Arm A, lower concentrations
  cell counts (survival) after Aβ1-42 insult: did not affect cell counts
[1]; Study Arm B, 1.0 μg/ml
  cell counts (survival) after Aβ1-42 insult: Increases in cell counts
[1]; Study Arm B, 10 μg/ml
  cell counts (survival) after Aβ1-42 insult: protection provided by 10 μg/ml was statistically significant
[1]; Study Arm B, lower concentrations
  cell counts (survival) after Aβ1-42 insult: did not affect cell counts
[2]; KLK1 1 pg/mL, 3 hrs
  Percent Cleavage of Amyloid Beta: 0%
[2]; KLK1 1 pg/mL, 18 hrs
  Percent Cleavage of Amyloid Beta: 0%
[2]; KLK1 10 pg/mL, 3 hrs
  Percent Cleavage of Amyloid Beta: 0%
[2]; KLK1 10 pg/mL, 18 hrs
  Percent Cleavage of Amyloid Beta: 15%
[2]; KLK1 100 pg/mL, 3 hrs
  Percent Cleavage of Amyloid Beta: 0%
[2]; KLK1 100 pg/mL, 18 hrs
  Percent Cleavage of Amyloid Beta: 19.5%
[2]; KLK1 1 ng/mL, 3 hrs
  Percent Cleavage of Amyloid Beta: 19.6%
[2]; KLK1 1 ng/mL, 18 hrs
  Percent Cleavage of Amyloid Beta: 50%
[2]; KLK1 10 ng/mL, 3 hrs
  Percent Cleavage of Amyloid Beta: 36.6%
[2]; KLK1 10 ng/mL, 18 hrs
  Percent Cleavage of Amyloid Beta: 88.4%
[2]; KLK1 100 ng/mL, 3 hrs
  Percent Cleavage of Amyloid Beta: 71.7%
[2]; KLK1 100 ng/mL, 18 hrs
  Percent Cleavage of Amyloid Beta: 99.8%
[2]; KLK1 1 μg/mL, 3 hrs
  Percent Cleavage of Amyloid Beta: 92.1%
[2]; KLK1 1 μg/mL, 18 hrs
  Percent Cleavage of Amyloid Beta: 100%
[3]; 10 μg/ml, Study Arms A, B and C (all three treatment arms), FIG. 7
  LDH release following Aβ1-42 insult: statistically significant reduction of LDH release
[3]; Study Arm A (-24 h and -30 min), 10 μg/ml, 10 μM Aβ1-42
  LDH release following Aβ1-42 insult: significantly reduced LDH release
[3]; Study Arm A (-24 h and -30 min), 0.001, 0.01, 0.1 and 1.0 μg/ml, 10 μM Aβ1-42
  LDH release following Aβ1-42 insult: did not alter LDH release
[3]; Study Arm B (-30 min and +24 h), 1.0 μg/ml
  LDH release following Aβ1-42 insult: reduced LDH release
[3]; Study Arm B (-30 min and +24 h), 10 μg/ml
  LDH release following Aβ1-42 insult: statistically significant reduction of LDH release
[3]; Study Arm B (-30 min and +24 h), 0.001, 0.01 and 0.1 μg/ml, 10 μM Aβ1-42
  LDH release following Aβ1-42 insult: did not alter LDH release
